Reference: the supplement of paper PMC10567573

B1: SPRY1 (parent)
chain: WIHRPGCRCKNSNTVYCKLESCPS

Variants of: B1
Assay: protein stability index of a GFP-peptide fusion (GPS, HEK-293T) (PSI 1-6); higher = more stable
Settings: c terminus: a fixed tail appended
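Note: lentivirally expressed fusions sorted by FACS into six bins by GFP to DsRed ratio, PSI derived from sequencing read proportions per bin multiplied by bin number.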

Protein stability index: each site, then its substitutions
Y16: W 2.68; G 2.75; A 3.71; V 2.91; E 3.28; Q 2.46; S 2.92; M 2.02; H 2.65; P 2.56; K 2.05; F 1.74; L 2.28; D 2.91; N 3.56; I 1.87; C 2.69
S12: T 2.28; A 3.15; G 3.79; N 2.12; Y 1.97; Q 2.14; D 2.16; H 1.4; C 3.25; R 2.03; K 2.32; W 1.73; F 2.1; E 2.71; L 3.01; P 1.65; I 2.4; V 2.2; M 2.33
C9: V 3.41; K 1.84; N 1.97; R 1.45; S 3.7; W 2.04; L 2.69; T 1.49; Q 2; P 2.4
C17: F 2.98; A 1.44; D 1.99; Q 1.71; P 2.1; E 2.39; I 2.46; T 1.65; M 2.21; N 1.51; G 2.81; H 2.3; Y 1.65; K 2.42; L 1.58; S 2.13; V 3.78
T14: W 1.85; G 2.8; Y 1.84; K 1.92; E 2.84; M 1.97; H 1.99; C 2.56; N 2.78; I 2.6; R 1.54; S 2.59; F 1.9; P 1.79; A 2.89; D 3.07; L 2.08; Q 2.87; V 1.86
K18: D 3.3; H 2.1; G 2.58; M 2.46; I 1.68; L 1.8; F 1.74; A 1.91; C 2.72
K10: S 2.26; C 1.88; W 2.41; Q 2.81; G 2.75; I 2.88; Y 1.82; V 2; T 3.11; H 2.77; E 2.73; R 2.21; F 1.74; M 1.63; P 2.73; D 3.1; N 2.75; L 1.96; A 2.33
V15: R 2.67; H 2.06; P 3.11; N 2.68; C 2.42; L 2.34; Q 2.65; M 1.74; K 2.18; E 2.49; Y 1.6; A 2.41; D 3.14; S 2.35; I 2.14; G 2.69; T 3.03; W 2.92; F 2.37
N11: G 2.15; Y 2.07; R 4.1; E 2.62; M 2.66; K 2.19; I 1.86; T 2.1; V 3.49; Q 2.41; S 2.7; L 2.51; F 2.42; W 2.6; A 3.47; H 2.52; P 2.27; C 1.83; D 2.88
N13: H 1.91; K 1.17; S 2.06; G 2.23; C 2.1; Y 2.73; Q 2.26; L 2.31; T 2.4; W 2.81; R 1.88; M 2.74; V 2.04; D 3.17; F 2.3; I 1.67; A 1.92; E 2.64; P 2.36
